{"source": "paper PMC8906176", "biological_target": "C4-AM2 monobody", "assay": "BLI", "data": [{"substance": "SARS-CoV-2 S protein receptor-binding domain, Alpha variant (B.1.1.7) (from UniProt P0DTC2) (domain or fragment)", "values": [{"measurement": "Kd", "value": "< 0.01", "unit": "nM"}]}, {"substance": "SARS-CoV-2 S protein receptor-binding domain, Beta variant (B.1.351) (from UniProt P0DTC2) (domain or fragment)", "values": [{"measurement": "Kd", "value": 6.3, "unit": "nM"}]}]}
